In the nanobody polyreactivity screen of Harvey et al. (2022):

Test: yeast display, Sf9 membrane polyspecificity reagent, FACS + sequencing; frameworks hold sequencing errors
Outline: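 Nanobodies from a synthetic yeast display library (Saccharomyces cerevisiae BJ5465), induced 36–48 hours with galactose, were stained 1 hour at 4 °C with 10% biotinylated, detergent-solubilized Sf9 membrane reagent, enriched on streptavidin microbeads, then FACS-sorted. Anti-HA (expression) and streptavidin (reagent binding) fluorescence set low and high (top ~1%) gates. Polyreactivity labels come from the gate of origin. Genes were colony-PCR amplified, MiSeq 2 × 250 sequenced and filtered by CDR length.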
For “QVQLVESGGGLVQAGGSLRLSCAASGFTLGRYAMGWYRQAPGKEREFVAAISSSGTTTNYADSVKGRFTISRDNAKNTVYLQMNSLKPEDTAVYFCNAYTTKRRWIKYDYWGQGTQVTVSS”, the “polyreactivity (PSR sort gate)” value was “high polyreactivity”.
In the case of “QVQLVESGGGLVQAGGSLRLSCAASGFTLGSNVMGWYRQAPGKERELVAGISQSGGRTFYADSVKGRFTISRDNAKNTVYLQMNSLKPEDTAVYYCNAYRYYSPYGYWGQGTQVTVSS”, the “polyreactivity (PSR sort gate)” value was “low polyreactivity”.
In the case of “QVQLVESGGGLVQAGGSLRLSCAASGFTLKYYAMGWYRQAPGKERELVAAITQRGGSTYADSVKGRFTISRDNAKNTVYLQMNSLKPEDTAFYFCAASSAKYRLYGGYDYWGQGTQVTVSS”, the “polyreactivity (PSR sort gate)” value was “high polyreactivity”.
In the case of “QVQLVESGGGLVQAGGSLRLSCAASGFTLLKYAMGWYIQAPGKERELVAAITRRGGRTSYADSVKGRFTISRDNAKNTVYLQMNSLKPEDTAVYYCNADGDTGRFDYWGQGTQVTVSS”, the “polyreactivity (PSR sort gate)” value was “high polyreactivity”.
With “QVQLVESGGGLVQAGGSLRLSCAASGFTLLTYVMGWYRQAPGKERELVAAISKSGSRTYYADSVKWRFTISRDNAKNTVYLQMNRLKPVDTPVYYCAADTSAYRYDYWGQGTQVTVSS” the “polyreactivity (PSR sort gate)” value was “high polyreactivity”.
In the case of “QVQLVESGGGLVQAGGSLRLSCAASGFTLLVNAMGWYRQAPGKERELVAAITSGGRTNYADSVKGRFTISRDNAKNTVYLQMNSLKPEDTAVYYCARDWGRKPDDGQQAWYEYWGQGTQVTVSS”, the “polyreactivity (PSR sort gate)” value was “low polyreactivity”.
With “QVQLVESGGGLVQAGGSLRLSCAASGFTLRLYVMGWYRQAPGKERELVAAITSSGGSTYYADSVKGRFTISRDNAKNTVYLQMNSLKPEDTAVYYCAAVNRKSQLYGYWGQGTQVTVSS” the “polyreactivity (PSR sort gate)” value was “high polyreactivity”.
For “QVQLVESGGGLVQAGGSLRLSCAASGFTLRSNVMGWSRQAPGKERELVAGISQSGGRTFYADSVKGRFTISRDNAKNTVYLQMNSLKPEDTAVYYCAARRYAVEGSKNYYWGQGTQVTVSS”, the “polyreactivity (PSR sort gate)” value was “low polyreactivity”.
In the case of “QVQLVESGGGLVQAGGSLRLSCAASGFTLRTYAMGWYRQAPGKERELVAAITVSGGTYYADSVKGRFTISRDNAKYTVYLQMNSLKPEDTAVYYCTAKRFGTGFDYWGQGTQVTVSS”, the “polyreactivity (PSR sort gate)” value was “low polyreactivity”.
For “QVQLVESGGGLVQAGGSLRLSCAASGFTLRYYAMGWSRQAPVKERELVATIKRSGASTYYADSVKGRFTISRDNSKNTVYLQMNSLKPEDTAVYYCNTATSRAYRYDYWGQGTQVTVSS”, the “polyreactivity (PSR sort gate)” value was “high polyreactivity”.
For “QVQLVESGGGLVQAGGSLRLSCAASGFTLSAYAMGLYRQAPGKERELVAGNSYTGGRTYYADSVKGRFTISRDNAKNTFYLQLISLKPEDTAVDYCAAALYSDVDAVATYGYYWGEGTQVTVSS”, the “polyreactivity (PSR sort gate)” value was “low polyreactivity”.
For “QVQLVESGGGLVQAGGSLRLSCAASGFTLSDYAMGGYRKAAGTERELVAGISSGGSTNYADSVKGRFTISRDNAKNTVYLQMNSLKPEDTAVYYCATRGTFQSHIRSGYWGQGTQVTVSS”, the “polyreactivity (PSR sort gate)” value was “high polyreactivity”.
In the case of “QVQLVESGGGLVQAGGSLRLSCAASGFTLSRYAMGWYRQAPGKERELVAAIRWSGGSTYYADSVKGRFTISRDNEKNTVYLQMNSLKPEDTAVYYCATRRSGYYSFYYWGQGTQVTGSS”, the “polyreactivity (PSR sort gate)” value was “high polyreactivity”.
In the case of “QVQLVESGGGLVQAGGSLRLSCAASGFTLTGNAMGWYRQAPGKERELVAAISRNGGSTFYADSVKGRFTISRDNAKNTVYLQMNSLKPEDTAVYYCNASRYRHSAYKYDSWGQGTQVTVSS”, the “polyreactivity (PSR sort gate)” value was “high polyreactivity”.
For “QVQLVESGGGLVQAGGSLRLSCAASGFTLTSYAMGWYRQAPGKERELVAGISRGGITYYADSVKGRFTISRDNAKNTVYLQMNSLKPEDTAVYYCNARRTRRWPTTPEFTNFGYWGQGTQVTVSS”, the “polyreactivity (PSR sort gate)” value was “high polyreactivity”.
In the case of “QVQLVESGGGLVQAGGSLRLSCAASGFTLVKYVMGWYIQAPGKEREFVATIRRRGGNTYYADSVKGRFTISRDNAKNTVYLQMNSLKPEDTAVYYCAAKKRSDLRTGDMEYWGQGTQVTVSS”, the “polyreactivity (PSR sort gate)” value was “high polyreactivity”.
In the case of “QVQLVESGGGLVQAGGSLRLSCAASGFTLWGYAMGWYRQAPGKERELVATISWSGGGTNYADSVKGRFTISRDNAKNTVYLQMNSLKPEDTAVYYCAAGQGSRNQYYYWGQGTQVTVSS”, the “polyreactivity (PSR sort gate)” value was “high polyreactivity”.
